{"source": "paper PMC8805299", "about": "“Determining the oxidation state of elements by X-ray crystallography” (Acta Crystallographica. Section D, Structural Biology, 2022)", "proteins": {"B1": {"name": "Sulfolobus tokodaii sulerythrin reconstituted with ferrous iron (diFe-SulE) (natural protein, UniProt F9VPE5 1-144, looked up)", "chain": "MKDLKGTKTAENLKQGFIGESMANRRYLYFAKRADEEGYPEIAGLLRSIAEGETAHAFGHLDFIRQGGLTDPATDKPIGTLEQMIESAIAGETYEWTQMYPGFAKVAREEGFPEVAEWFETLARAEKSHAEKFQNVLKQLKGGT", "notes": "Sulerythrin (SulE), Sulfolobus tokodaii, UniProt F9VPE5, residues 1-145; synthetic gene in pET-28a with an N-terminal Strep-tag and a TEV protease site; Domain-swapped homodimer; each of its two binuclear metal sites holds two iron ions (four in all); Crystals were treated with 100 mM H2O2; not shown: Strep-tag, N-terminal, cleaved"}}, "molecular_target": "the molecule itself", "assay": "crystal structure; diFe-SulE crystals grown anoxically in 0.1 M bis-Tris pH 5.5, 24% (w/v) PEG 3350 at 293 K, treated with 100 mM H2O2; data at 100 K; space group P63; three data sets at 5%, 10% and 100% beamline flux"}
{"protein": "B1", "values": [{"measurement": "stoichiometry N", "value": 2}]}
